Laboratory results published in the supplement of paper PMC6757056.
± gives the standard deviation of the averaged measurements.

B1: library; a variant is named by its letters at N, in order (parent)
chain: GCUGUCACCGGUGUAUUACCCUAGUGGUCGACCGGUCUGAUGAGUCUNNNNNNAGACGAAACAGC

Legend:
hypoxanthine [1] = variants of: B1; experiment: normalized RNA/DNA level with ligand (relative to sTRSVctl = 100) (log10 (% of sTRSVctl)); ligand: hypoxanthine (xanthine aptamer); higher = less ribozyme self-cleavage, higher mRNA level; settings: ligand concentration (+) RNA-Seq: 5 mM, HEK293T, reporter: mCherry (pCS4076), ligand present: yes
How it was run: (§1)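 Ribozyme switch library plasmids with mCherry reporters (eGFP in certain ligand experiments) went into HEK293T cells at 4 µg per 6-well well. Where ligand was used, it was applied 1 h before transfection, and total RNA was extracted with EDTA 72 h later for reverse transcription, amplification, barcoding and sequencing. RNA level is the RNA-to-DNA read ratio normalized to a spiked-in non-cleaving sequence or to the leading sequences, then scaled and log-transformed. Scaling was ×100 with log10, the leading set comprised 25 sequences, and the cutoff was ≥100 DNA reads.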

hypoxanthine [2] = variants of: B1; experiment: normalized RNA/DNA level without ligand (relative to sTRSVctl = 100) (log10 (% of sTRSVctl)); ligand: hypoxanthine (xanthine aptamer); higher = less ribozyme self-cleavage, higher mRNA level; settings: HEK293T, reporter: mCherry (pCS4076), ligand present: no
How it was run: as §1

Variant | normalized RNA/DNA level with ligand (log10) (hypoxanthine [1]) | normalized RNA/DNA level without ligand (log10) (hypoxanthine [2])
GCUGUCACCGGUGUAUUACCCUAGUGGUCGACCGGUCUGAUGAGUCUGUCGAUAGACGAAACAGC | 1.93 ± 0.07 | 1.76 ± 0.039
GCUGUCACCGGUGUAUUACCCUAGUGGUCGACCGGUCUGAUGAGUCUUUCGCGAGACGAAACAGC | 1.9036 ± 0.0015 | 1.84 ± 0.044
GCUGUCACCGGUGUAUUACCCUAGUGGUCGACCGGUCUGAUGAGUCUUUCGCUAGACGAAACAGC | 1.983 ± 0.015 | 1.87 ± 0.049
GCUGUCACCGGUGUAUUACCCUAGUGGUCGACCGGUCUGAUGAGUCUUUCGCCAGACGAAACAGC | 1.95 ± 0.046 | 1.856 ± 0.015
GCUGUCACCGGUGUAUUACCCUAGUGGUCGACCGGUCUGAUGAGUCUCUCGCGAGACGAAACAGC | 1.983 ± 0.0024 | 1.9 ± 0.084
GCUGUCACCGGUGUAUUACCCUAGUGGUCGACCGGUCUGAUGAGUCUCUCGCCAGACGAAACAGC | 1.99 ± 0.026 | 1.883 ± 0.0029
GCUGUCACCGGUGUAUUACCCUAGUGGUCGACCGGUCUGAUGAGUCUCUCGCUAGACGAAACAGC | 1.95 ± 0.043 | 1.924 ± 0.014
GCUGUCACCGGUGUAUUACCCUAGUGGUCGACCGGUCUGAUGAGUCUCUCGCAAGACGAAACAGC | 1.94 ± 0.062 | 1.847 ± 0.002
GCUGUCACCGGUGUAUUACCCUAGUGGUCGACCGGUCUGAUGAGUCUUUCCUAAGACGAAACAGC | 1.94 ± 0.016 | 1.89 ± 0.0066
GCUGUCACCGGUGUAUUACCCUAGUGGUCGACCGGUCUGAUGAGUCUUUCCUUAGACGAAACAGC | 1.92 ± 0.081 | 1.891 ± 0.0051
GCUGUCACCGGUGUAUUACCCUAGUGGUCGACCGGUCUGAUGAGUCUUUCCUCAGACGAAACAGC | 1.97 ± 0.038 | 2.04 ± 0.025
GCUGUCACCGGUGUAUUACCCUAGUGGUCGACCGGUCUGAUGAGUCUGUCGCUAGACGAAACAGC | 2.04 ± 0.038 | 1.904 ± 0.011
GCUGUCACCGGUGUAUUACCCUAGUGGUCGACCGGUCUGAUGAGUCUGUCGCCAGACGAAACAGC | 1.9 ± 0.05 | 1.91 ± 0.08
GCUGUCACCGGUGUAUUACCCUAGUGGUCGACCGGUCUGAUGAGUCUGUCGCGAGACGAAACAGC | 1.93 ± 0.039 | 1.55 ± 0.055
GCUGUCACCGGUGUAUUACCCUAGUGGUCGACCGGUCUGAUGAGUCUAUCGGAAGACGAAACAGC | 1.94 ± 0.044 | 1.74 ± 0.061
GCUGUCACCGGUGUAUUACCCUAGUGGUCGACCGGUCUGAUGAGUCUAUCGGCAGACGAAACAGC | 1.97 ± 0.099 | 1.86 ± 0.029
GCUGUCACCGGUGUAUUACCCUAGUGGUCGACCGGUCUGAUGAGUCUAUCGCUAGACGAAACAGC | 1.91 ± 0.024 | 1.84 ± 0.028
GCUGUCACCGGUGUAUUACCCUAGUGGUCGACCGGUCUGAUGAGUCUAUCGCAAGACGAAACAGC | 1.9253 ± 0.0018 | 1.77 ± 0.028
GCUGUCACCGGUGUAUUACCCUAGUGGUCGACCGGUCUGAUGAGUCUAUCGCGAGACGAAACAGC | 1.863 ± 0.0079 | 1.409 ± 0.0031
GCUGUCACCGGUGUAUUACCCUAGUGGUCGACCGGUCUGAUGAGUCUCUCGAGAGACGAAACAGC | 1.9019 ± 0.00066 | 1.6 ± 0.031
GCUGUCACCGGUGUAUUACCCUAGUGGUCGACCGGUCUGAUGAGUCUCUCGACAGACGAAACAGC | 1.96 ± 0.023 | 1.808 ± 0.017
